From paper PMC9257163, “Fluorescence Detection of Cancer Stem Cell Markers Using a Sensitive Nano-Aptamer Sensor”

Legend:
[1] = target: T1, CD133 (prominin-1) (UniProt O43490 20-865); test: competition (FRET turn-on displacement of AuNPs-ssRNA); 0-1.539 uM CD133, 5 nM QD-aptamer; maximum recovery 68%; LOD 6.99 nM (not a Kd); QD-aptamers redispersed in PBS; sensor annealed from 95 °C to room temperature; binding buffer, pH and temperature not stated in the material; settings: label: CdSe/ZnS QD on aptamer 5' end; AuNP (25 nm) on ssRNA 5' end; partially complementary RNA duplex; about 7 aptamers per QD; ssRNA displaced by protein
T1 sequence: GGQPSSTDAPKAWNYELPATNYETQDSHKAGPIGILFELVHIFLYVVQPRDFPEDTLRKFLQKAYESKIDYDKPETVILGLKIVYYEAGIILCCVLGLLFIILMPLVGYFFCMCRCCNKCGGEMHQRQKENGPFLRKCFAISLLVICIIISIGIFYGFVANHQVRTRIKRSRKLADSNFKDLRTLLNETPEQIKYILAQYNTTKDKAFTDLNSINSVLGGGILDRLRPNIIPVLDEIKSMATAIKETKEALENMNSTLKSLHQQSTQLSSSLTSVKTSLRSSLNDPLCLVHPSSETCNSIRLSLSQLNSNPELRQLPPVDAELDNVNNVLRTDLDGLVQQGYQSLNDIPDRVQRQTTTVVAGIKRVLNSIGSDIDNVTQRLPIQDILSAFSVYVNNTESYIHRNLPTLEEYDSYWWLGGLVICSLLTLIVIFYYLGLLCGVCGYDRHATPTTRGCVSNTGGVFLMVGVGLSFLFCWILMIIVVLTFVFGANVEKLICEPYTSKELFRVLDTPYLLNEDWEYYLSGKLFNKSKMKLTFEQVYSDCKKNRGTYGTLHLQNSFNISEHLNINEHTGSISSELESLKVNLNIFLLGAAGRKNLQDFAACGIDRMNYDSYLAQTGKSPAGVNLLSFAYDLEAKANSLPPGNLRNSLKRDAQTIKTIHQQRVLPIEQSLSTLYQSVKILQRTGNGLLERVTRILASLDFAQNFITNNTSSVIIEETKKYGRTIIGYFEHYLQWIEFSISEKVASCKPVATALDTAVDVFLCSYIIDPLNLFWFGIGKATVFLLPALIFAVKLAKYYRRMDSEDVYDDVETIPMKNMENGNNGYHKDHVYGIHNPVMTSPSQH

[2] = target: EGFR (UniProt P00533 25-645); test: competition (FRET turn-on displacement of AuNPs-ssRNA); 2 uM protein; QD-aptamers redispersed in PBS; sensor annealed from 95 °C to room temperature; binding buffer, pH and temperature not stated in the material; settings: chain copies: 2; label: CdSe/ZnS QD on aptamer 5' end; AuNP (25 nm) on ssRNA 5' end; partially complementary RNA duplex; about 7 aptamers per QD; ssRNA displaced by protein
[3] = target: T2, IL-1α (UniProt P01583 113-271); test: as above; settings: label: CdSe/ZnS QD on aptamer 5' end; AuNP (25 nm) on ssRNA 5' end; partially complementary RNA duplex; about 7 aptamers per QD; ssRNA displaced by protein
T2 sequence: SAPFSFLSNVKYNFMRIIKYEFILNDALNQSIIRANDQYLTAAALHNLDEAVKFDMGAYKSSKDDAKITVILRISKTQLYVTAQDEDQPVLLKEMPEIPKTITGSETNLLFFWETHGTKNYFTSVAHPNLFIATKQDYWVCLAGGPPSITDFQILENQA

[4] = target: TGF-β1 (UniProt P01137 279-390); test: as above; settings: chain copies: 2; label: CdSe/ZnS QD on aptamer 5' end; AuNP (25 nm) on ssRNA 5' end; partially complementary RNA duplex; about 7 aptamers per QD; ssRNA displaced by protein
TGF-β1, sequence (P01137 279-390): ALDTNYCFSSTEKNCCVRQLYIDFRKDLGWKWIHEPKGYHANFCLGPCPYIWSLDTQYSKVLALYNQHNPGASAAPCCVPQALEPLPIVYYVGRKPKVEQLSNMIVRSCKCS

B1: CD133 aptamer sensor (QD-aptamer hybridized to AuNPs-ssRNA) (mixed)
RNA 1: CCCUCCUACAUAGGG
RNA 2: CCCUAUG
modifications: 5'-NH2 on aptamer; 5'-SH on ssRNA
binding result [1]: binds
binding result [2]: no binding
binding result [3]: no binding
binding result [4]: no binding
